2 molecules from patent publication US12344663B2, “Anti-C3 antibodies and antigen-binding fragments thereof and their uses for treating eye or ocular diseases” (CDR-Life AG, priority 2021, dated 2025) can be followed below.

One data set concerns Classical Pathway. The data set can be described thus: WEISLAB Complement system Screen, classical pathway MAC (C5b-C9) formation. The class given is biochemical, human. The settings on record: human serum; read-out: IC50 (nM) Classical Pathway MAC deposition. The protocol:
(§1) To identify antibodies that block all 3 complement pathways, antibodies are screened using an enzyme immunoassay for the qualitative determination of functional classical, lectin and alternative complement pathways in human serum using the WEISLAB® Complement system Screen (Svar Life Science AB, Malmö, Sweden).
(§2) To monitor inhibition of the complement system in human serum, the scFv of the invention or the comparator molecules are tested using an enzyme immunoassay for the qualitative determination of functional classical, lectin and alternative complement pathways in human serum using the WEISLAB® Complement system Screen (Svar Life Science AB, Malmö, Sweden), following the supplier's instructions. The amount of C5b-C9 neoantigen generated is proportional to the functional activity of complement pathways. The scFv of the invention and the comparator molecules are tested in a concentration response curve and the IC50 for the inhibition is calculated using the GraphPadPrism software and a non-linear, 4 parameters curve regression.

Another data set addresses cyno C3. The data set can be described thus: SPR (Biacore T100) binding to cyno C3. Set-up: species or system cynomolgus (Macaca fascicularis). The settings on record: for Kd: Table 20, SPR; for kd cyno C3: off-rate; for ka cyno C3: on-rate. The protocol: (§3) The kinetic parameters of the candidates are determined using a surface plasmon resonance (SPR) and Biacore T100 device. C3 and different variants thereof (Table 19) are immobilized as a ligand on a HC30M SPR sensor chip (XanTec bionanalytics, Germany) using EDC/[…] linking chemistry. Five increasing concentrations of each molecule (analyte) are consecutively injected using the single cycle kinetics (SCK) mode to determine the kinetic parameters. Regeneration between the candidates is done with 10 mM glycine*HCl, 2 M NaCl, pH 3.5. The data is fitted to a 1:1 Langmuir binding model and the kinetic parameters of on-rate (ka), off-rate (kd), and affinity […] were determined.
(In SPR one partner is held on a chip, and binding of the other changes the refractive index at the surface.)

The nature of data set [1]: Storage stability at 150 mg/ml, chemical degradation by IEX-HPLC. It counts as physicochemical. The settings on record: for Starting charge purity (IEX-HPLC): before storage; for Storage stability, IEX 4 weeks at 25° C. [D %] / Storage stability, IEX 4 weeks at 40° C. [D %]: decrease versus start. The procedure:
(§4) Clone I, clone II and clone III are tested for storage stability. Samples are concentrated to 150 mg/ml (Vivaspin20 centrifugal device, 5 kDa MWCO at 3800×g) and stored at 25° C. and 40° C. for up to 4 weeks. Samples are analyzed for oligomerization (SE-HPLC) and chemical degradation (IEX-HPLC). The starting monomeric purity as determined by SE-HPLC was 99.96% for each clone. The starting charge purity, as determined by IEX-HPLC was 98.07%, 97.16% and 96.76%, respectively for clone I, II and III.

In another data set the test system is Alternative Pathway. The data set can be described thus: WEISLAB Complement system Screen, alternative pathway MAC (C5b-C9) formation. It counts as biochemical, human. The conditions noted are these: human serum; read-out: IC50 (nM) Alternative Pathway MAC deposition. The protocol: as §1, §2
The target in another data set is human C3 (Homo sapiens, UniProt P01024). The data set is described as follows: SPR (Biacore T100) binding to human C3. The settings on record: for kd C3: off-rate; for ka C3: on-rate. The protocol:
as §3

Data set [2] in a line: Viscosity at high concentrations, cone-plate-rheometer. The class given is physicochemical. The conditions noted are these: 20° C., shear-rate 1000 s^−1; for Viscosity [mPa * s] Fully formulated at 150 g/L: 10 mM His pH 5.5, 275 mM sucrose, 0.02% w/v Polysorbate20; for Viscosity [mPa * s] Minimal buffer at 185 g/L: 10 mM His pH 5.5. The procedure: Viscosity measurements are performed with the samples prepared for the storage stability study. In addition to the fully formulated samples (10 mM His pH 5.5, 275 mM sucrose, 0.02% w/v Polysorbate20), viscosity of each candidate is also measured in a minimal formulation (10 mM histidine pH 5.5). This is performed to evaluate the drug substance processability (e.g., filtration, pumping, diafiltration, etc.) of the candidates up to 125% of the final drug product concentration of 150 mg/ml.
Viscosity is measured at 20° C. at a shear-rate of 1000 s^−1 using a cone-plate-rheometer. Briefly, a stepwise increase of the shear rate up to 1,000 s^−1 is done collecting 100 data points, followed by a further increase of the shear rate up to 2000 s^−1, collecting another 10 data points. Finally, a stepwise decrease of the shear rate down to starting rate is done. Good drug product handling properties for filling and syringeability have been observed for all candidates

A further data set has as its system Alternative Pathway (AP). The data set can be described thus: Hemolytic assay, rabbit erythrocytes in human serum. It counts as cell-based. The settings on record: MgEGTA, read-out: IC50 (nM) Alternative Pathway Hemolysis. An excerpt: The Alternative Pathway (AP) in human serum samples is spontaneously activated by rabbit erythrocytes. Since AP activation requires higher concentrations of serum, the Classical Pathway needs to be blocked with MgEGTA to chelate Ca2+ ions (AP only requires Mg2+ ions). AP activation results in C3 activation and subsequent formation of the Membrane Attack Complex (MAC). The MAC assembles on the membrane of rabbit erythrocytes leading to cell lysis. The level of hemoglobin released from lysed erythrocytes is measured at OD 414 nm and is proportional to the complement activity present in the serum sample.

Data set [3] addresses T1, recombinant C3 (wild-type human C3) (Homo sapiens, UniProt P01024).
T1 construct: 6×His (N); made in house; host or cells: CHO (ExpiFectamine CHO Expression Kit)
The data set can be described thus: SPR (Biacore T100) binding to recombinant C3. The settings on record: for Kd: Table 20, SPR; for kd recombinant C3: off-rate; for ka recombinant C3: on-rate. The procedure:
as §3
Proteins are expressed with N-terminal 6×His tag and purified using a HisTrap Excel HP column (GE Healthcare), followed by a size-exclusion chromatography step (SUPERDEX®20010/300GL; GE Healthcare).

The next data set deals with T2, human C3 R102G (Homo sapiens, UniProt P01024, R102G).
T2 construct: 6×His (N); made in house; host or cells: CHO (ExpiFectamine CHO Expression Kit)
T2 sequence (P01024 23-1663 R102G): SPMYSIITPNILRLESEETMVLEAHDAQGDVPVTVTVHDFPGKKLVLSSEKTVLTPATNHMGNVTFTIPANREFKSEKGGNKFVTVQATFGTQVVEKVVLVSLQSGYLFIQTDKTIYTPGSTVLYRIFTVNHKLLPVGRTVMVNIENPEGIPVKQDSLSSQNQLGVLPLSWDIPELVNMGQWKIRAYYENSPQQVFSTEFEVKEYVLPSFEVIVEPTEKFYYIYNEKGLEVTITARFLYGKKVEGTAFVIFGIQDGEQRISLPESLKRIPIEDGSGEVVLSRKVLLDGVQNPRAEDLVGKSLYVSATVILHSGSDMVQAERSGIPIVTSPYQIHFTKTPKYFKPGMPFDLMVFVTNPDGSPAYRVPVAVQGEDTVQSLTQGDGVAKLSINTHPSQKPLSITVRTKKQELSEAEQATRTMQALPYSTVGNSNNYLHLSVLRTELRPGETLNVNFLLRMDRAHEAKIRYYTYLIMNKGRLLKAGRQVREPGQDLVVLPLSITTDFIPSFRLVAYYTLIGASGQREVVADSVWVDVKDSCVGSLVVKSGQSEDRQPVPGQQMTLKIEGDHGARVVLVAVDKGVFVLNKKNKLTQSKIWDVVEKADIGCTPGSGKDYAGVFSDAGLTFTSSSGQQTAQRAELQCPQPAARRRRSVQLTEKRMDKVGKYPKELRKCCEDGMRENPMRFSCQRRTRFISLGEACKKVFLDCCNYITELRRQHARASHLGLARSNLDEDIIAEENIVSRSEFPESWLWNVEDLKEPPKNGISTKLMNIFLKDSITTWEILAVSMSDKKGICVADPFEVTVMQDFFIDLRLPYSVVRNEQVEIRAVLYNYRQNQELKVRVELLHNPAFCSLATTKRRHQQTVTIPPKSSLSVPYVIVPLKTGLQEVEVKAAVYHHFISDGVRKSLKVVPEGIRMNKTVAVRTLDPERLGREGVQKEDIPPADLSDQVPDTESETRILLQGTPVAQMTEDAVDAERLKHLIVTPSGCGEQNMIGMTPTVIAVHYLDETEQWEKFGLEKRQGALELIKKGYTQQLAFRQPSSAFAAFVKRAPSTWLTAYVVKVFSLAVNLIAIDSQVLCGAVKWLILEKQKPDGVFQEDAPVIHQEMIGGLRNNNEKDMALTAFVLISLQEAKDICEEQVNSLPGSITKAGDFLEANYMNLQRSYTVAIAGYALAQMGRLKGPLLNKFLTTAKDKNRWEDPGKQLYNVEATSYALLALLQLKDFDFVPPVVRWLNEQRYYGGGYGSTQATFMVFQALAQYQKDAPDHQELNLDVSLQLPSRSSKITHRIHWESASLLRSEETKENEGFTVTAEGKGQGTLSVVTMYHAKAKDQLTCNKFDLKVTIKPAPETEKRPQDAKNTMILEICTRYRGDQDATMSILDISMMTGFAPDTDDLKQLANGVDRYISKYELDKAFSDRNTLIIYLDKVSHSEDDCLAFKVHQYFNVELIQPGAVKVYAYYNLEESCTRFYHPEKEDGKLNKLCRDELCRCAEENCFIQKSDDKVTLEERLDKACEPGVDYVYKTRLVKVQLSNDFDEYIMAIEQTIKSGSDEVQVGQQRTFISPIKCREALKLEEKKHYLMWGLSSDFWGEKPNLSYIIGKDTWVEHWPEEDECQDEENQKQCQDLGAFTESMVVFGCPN
The data set can be described thus: SPR (Biacore T100) binding to C3 SNP2 R102G. The conditions noted are these: for Kd: Table 20, SPR; for kd C3 SNP2 R102G: off-rate; for ka C3 SNP2 R102G: on-rate. The protocol: as §3
Single nucleotide polymorphism (SNP) in C3 has been observed across the population and certain SNPs were identified in genome-wide association studies (GWAS) to correlate with an increased risk to develop AMD. Common SNP variants include P314L, which occurs in approximately 23.3% of population, and R102G, which has been reported to occur in approximately 26-29% of population. Very rare variants, which occur in less that 2.5% of the population include K155Q, R735W, S1619W, K65Q and R161W.
The inventors therefore measured the binding affinity of the scFv of the invention to the most commonly occurring C3 forms, i.e., R102G and P314L. Wild-type human C3, human C3 P314L and human C3 R102G are expressed in the CHO cell line using the ExpiFectamine CHO Expression Kit (Thermo Fisher Scientific). Proteins are expressed with N-terminal 6×His tag and purified using a HisTrap Excel HP column (GE Healthcare), followed by a size-exclusion chromatography step (SUPERDEX®20010/300GL; GE Healthcare).

Data set [4] can be described thus: Storage stability at 150 mg/ml, oligomerization by SE-HPLC. It counts as physicochemical. The settings on record: decrease in monomeric content versus start. The procedure:
as §4

Where [5] appears, read: Table 19, SPR, read-out: Affinity human C3.
[6] abbreviates: Table 20, SPR, read-out: KD (nM) C3.

Like-named read-outs stand apart in the source and are kept apart here.

T1 sequence (P01024 23-1663): as the sequence (P01024 23-1663 R102G) above, with G80R counted along it
human C3, sequence (P01024 23-1663): as the sequence (P01024 23-1663 R102G) above, with G80R counted along it

B1: Clone I: humanized anti-C3 scFv, VH SEQ ID NO: 20, VL SEQ ID NO: 21; scFv SEQ ID NO: 26 or 27 (antibody, V domains shown)
VH: QVQLVESGGGSVQPGRSLRLSCAASGFTFSNYAMNWVRQAPGKGLEWVAVISYDGSNKYYADSVKGRFTISRDNSKNTLYLQMNSLRAEDTASYYCARAVGYHHARLDPWGCGTSVTVSS
VL: QLVLTQSPSASASLGASVKLTCTLSSAHKTYTIDWYQQQPEKCPRYLMQLKSDGSYTKGSGIPDRFSGSSSGAERYLTISSLQSEDEADYYCGTEGVGGYVFGGGTKLTVLG
modifications: VH; VL
Turning to B1, the IC50 in the data set on Classical Pathway amounted to 79 nM. Also, on cyno C3, the Kd was found to be 0.267 nM, the “kd cyno C3” value was 6.3e-05 s⁻¹ and the “ka cyno C3” value is 240000 M⁻¹ s⁻¹. Moreover, in [1], the “Starting charge purity (IEX-HPLC)” value was 98.07%; the “Storage stability, IEX 4 weeks at 25° C. [D %]” value came out at 1.1 D %; the “Storage stability, IEX 4 weeks at 40° C. [D %]” value turned out to be 2.4 D %. Besides, in the data set on Alternative Pathway, the IC50 came to 344 nM. In the data set with human C3 (Table 16, read-out: C3 (Kd)), the Kd worked out at 0.16 nM. In addition, the Kd with human C3 (setting [5]) came out at 0.152 nM. In the data set with human C3 (setting [6]), the Kd is 0.152 nM. Further, in the data set with human C3, the “kd C3” value is 4.7e-05 s⁻¹ and the “ka C3” value stood at 310000 M⁻¹ s⁻¹. Moreover, in data set [2], the “Viscosity [mPa * s] Fully formulated at 150 g/L” value is reported as 3.9 mPa * s and the “Viscosity [mPa * s] Minimal buffer at 185 g/L” value came out at 5.4 mPa * s. In addition, in the data set with Alternative Pathway (AP), the IC50 is 705 nM. In addition, in [3], the Kd came to 0.148 nM, the “kd recombinant C3” value turned out to be 4.9e-05 s⁻¹ and the “ka recombinant C3” value turned out to be 330000 M⁻¹ s⁻¹. Also, in the data set with human C3 R102G, the Kd was determined as 0.135 nM, the “kd C3 SNP2 R102G” value came out at 4.5e-05 s⁻¹ and the “ka C3 SNP2 R102G” value came out at 330000 M⁻¹ s⁻¹. In addition, in [4], the “Storage stability, SEC 4 weeks at 25° C. [D %]” value was determined as 0.06 D % and the “Storage stability, SEC 4 weeks at 40° C. [D %]” value amounted to 0.37 D %.

B2: Clone II: humanized anti-C3 scFv, VH SEQ ID NO: 22, VL SEQ ID NO: 23; scFv SEQ ID NO: 28 or 29 (antibody, V domains shown)
VH: QVQLVESGGGSVQPGRSLRLSCAASGFTFSNYAMNWVRQAPGKGLEWVAIINVGGGTNYADSVKGRFTISRDNSKNTLYLQMNSLRAEDTASYYCARAVGYHHARLDPWGCGTSVTVSS
VL: QLVLTQSPSASASLGASVKLTCTLSSAHKTYTIDWYQQQPEKCPRYLMQLKSDGSYTKGSGIPDRFSGSSSGAERYLTISSLQSEDEADYYCGTEGVGGYVFGGGTKLTVLG
modifications: VH; VL
B2: in the data set on Classical Pathway, the IC50 is 77 nM. Besides, on cyno C3, the Kd was found to be 0.07 nM, the “kd cyno C3” value worked out at 1.5e-05 s⁻¹ and the “ka cyno C3” value worked out at 210000 M⁻¹ s⁻¹. In addition, in data set [1], the “Starting charge purity (IEX-HPLC)” value is 97.16%; the “Storage stability, IEX 4 weeks at 25° C. [D %]” value is reported as 0.5 D %; the “Storage stability, IEX 4 weeks at 40° C. [D %]” value was 3.3 D %. In the data set with Alternative Pathway, the IC50 was determined as 360 nM. Besides, the Kd with human C3 (setting [5]) amounted to 0.022 nM. The Kd with human C3 (setting [6]) was determined as 0.022 nM. In the data set with human C3, the “kd C3” value worked out at 5.5e-06 s⁻¹ and the “ka C3” value was found to be 250000 M⁻¹ s⁻¹. In [2], the “Viscosity [mPa * s] Fully formulated at 150 g/L” value is recorded as 3.9 mPa * s and the “Viscosity [mPa * s] Minimal buffer at 185 g/L” value is 4.5 mPa * s. In addition, the IC50 with Alternative Pathway (AP) is 668 nM. Further, in data set [3], the Kd is 0.035 nM, the “kd recombinant C3” value worked out at 1e-05 s⁻¹ and the “ka recombinant C3” value was determined as 300000 M⁻¹ s⁻¹. Besides, in the data set with human C3 R102G, the Kd is 0.021 nM, the “kd C3 SNP2 R102G” value was found to be 7e-06 s⁻¹ and the “ka C3 SNP2 R102G” value came out at 330000 M⁻¹ s⁻¹. Also, in data set [4], the “Storage stability, SEC 4 weeks at 25° C. [D %]” value is 0.11 D % and the “Storage stability, SEC 4 weeks at 40° C. [D %]” value came out at 1.59 D %.

For orientation: IC50 means the concentration at which inhibition is half-maximal.
